In patent publication US20140113872A1 (INSTITUT NATIONAL DE LA RECHERCHE SCIENTIFIQUE, published 2014):
Read-outs that look alike come from different tables or passages of the source. Numbered stars: 1 amine (or outer) side, 2 acyl side, 3 side chain; on linkers, the order of the positions; unused ones are H or OH. Bridge positions count the residues as written; N and C are the ends. Square brackets hold non-standard residues; d marks the D form. Ends that are not written are not given here. dTiq = D-1,2,3,4-tetrahydroisoquinoline-1-carboxylic acid, O=C([C@H]1c2ccccc2CCN1[*:1])[*:2]; Bip = N[C@@H](Cc1ccc(-c2ccccc2)cc1)C(=O)O; Dip = N[C@H](C(=O)O)C(c1ccccc1)c1ccccc1; Phe(4-I) = N[C@@H](Cc1ccc(I)cc1)C(=O)O; 1Nal = N[C@@H](Cc1cccc2ccccc12)C(=O)O; d1Nal = N[C@H](Cc1cccc2ccccc12)C(=O)O; Tiq1c(1S) = O=C(O)[C@H]1NCCc2ccccc21; Tic = O=C(O)[C@@H]1Cc2ccccc2CN1; dTic = O=C(O)[C@H]1Cc2ccccc2CN1; Cha = N[C@@H](CC1CCCCC1)C(=O)O; dPhg = N[C@@H](C(=O)O)c1ccccc1; dTle = CC(C)(C)[C@@H](N)C(=O)O; Phg = N[C@H](C(=O)O)c1ccccc1; dAia = not defined here

T1: human urotensin II receptor (UT) (human, UniProt Q9UKP6 1-389)
T1 construct: whole, on cells; also called hUT; hGPR14
T1 sequence (looked up): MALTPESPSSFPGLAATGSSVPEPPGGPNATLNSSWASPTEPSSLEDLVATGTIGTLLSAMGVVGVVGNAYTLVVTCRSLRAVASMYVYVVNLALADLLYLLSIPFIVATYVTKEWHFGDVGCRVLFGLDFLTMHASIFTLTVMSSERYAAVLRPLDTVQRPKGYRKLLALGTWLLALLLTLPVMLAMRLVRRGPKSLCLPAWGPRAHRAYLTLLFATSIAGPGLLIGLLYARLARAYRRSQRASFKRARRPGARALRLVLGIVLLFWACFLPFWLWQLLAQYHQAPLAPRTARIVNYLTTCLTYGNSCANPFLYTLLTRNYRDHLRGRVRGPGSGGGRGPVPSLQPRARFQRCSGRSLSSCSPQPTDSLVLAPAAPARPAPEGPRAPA

T2: UT receptor present in rat aortic ring (rat, UniProt P49684 1-386)
T2 sequence (looked up): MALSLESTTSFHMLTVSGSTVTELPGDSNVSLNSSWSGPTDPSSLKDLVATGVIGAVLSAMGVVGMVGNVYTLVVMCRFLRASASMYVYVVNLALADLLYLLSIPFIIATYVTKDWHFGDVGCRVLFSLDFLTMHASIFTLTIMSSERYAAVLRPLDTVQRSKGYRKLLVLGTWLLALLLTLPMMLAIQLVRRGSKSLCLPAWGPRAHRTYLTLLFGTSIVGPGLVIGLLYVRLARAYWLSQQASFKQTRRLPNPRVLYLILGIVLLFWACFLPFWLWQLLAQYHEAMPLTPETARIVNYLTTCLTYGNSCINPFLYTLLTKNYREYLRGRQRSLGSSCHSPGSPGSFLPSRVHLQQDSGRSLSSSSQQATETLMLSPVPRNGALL


Columns and labels:
[1] = target: T1, human urotensin II receptor (UT); assay: displacement of 0.2 nM 125I-hUII from CHO cells expressing human UT
[2] = target: T2, UT receptor present in rat aortic ring; assay: cell-based or functional assay
[3] = target: T2, UT receptor present in rat aortic ring; assay: cell-based or functional assay; remark: listed apart in the source
[4] = target: T1, human urotensin II receptor (UT); assay: displacement of 0.2 nM 125I-hUII from CHO cells expressing human UT; remark: listed apart in the source
Description: Cell Culture and Binding Experiments: Transfected CHO cells expressing the human urotensin receptor (CHO-UT) were maintained in Ham-F12 medium with 10% fetal bovine serum (FBS), 2 mM L-glutamine, 100 Ul/mL each of penicillin and streptomycin, and 400 μg/mL G418. […] Binding assays were following known literature procedures using CHO cells stably transfected with hGPR14. […] After 90 min of incubation at room temperature, cells were washed, lysed, and the cell-bound radioactivity was quantified using a γ-counter. […] The cells were then washed, lysed, and the radioactivity counted on a γ-counter (1470 Automatic Gamma Counter, Perkin Elmer).

[5] = target: T1, human urotensin II receptor (UT); assay: as above; remark: listed apart in the source
[6] = target: T2, UT receptor present in rat aortic ring; assay: cell-based or functional assay; remark: listed apart in the source
[7] = target: T1, human urotensin II receptor (UT); assay: dissociation from living CHO-UT cells started with 10^-6 M URP + 10^-6 M urocontrin ([Bip^4]URP)
Description: (§1) Binding assays were following known literature procedures using CHO cells stably transfected with hGPR14. […] After 90 min of incubation at room temperature, cells were washed, lysed, and the cell-bound radioactivity was quantified using a γ-counter. […] The cells were then washed, lysed, and the radioactivity counted on a γ-counter (1470 Automatic Gamma Counter, Perkin Elmer).

[8] = target: T1, human urotensin II receptor (UT); assay: dissociation from living CHO-UT cells started with 10^-6 M URP alone
Description: as §1

Molecule	Aortic Ring contraction Emax (%) [2]	IC50 [4] [nM]	pEC50 [5]	further results
[Tbg^4]URP (peptide)				pEC50 [1]: < 5
ACF[Tic]KYCV-OH (disulfide 2-7) [[Tic^4]URP]				pEC50 [1]: < 5; Aortic Ring contraction Emax (%), maximum efficacy at 10^-5.5 M [2]: 43 % of KCl (40 mM) contraction
H-ETPDCFWKYCV-OH (disulfide 5-10) [human urotensin II (hUII)]	117 % of KCl (40 mM) contraction			Aortic Ring contraction EC50 [2]: 1 nM; Aortic Ring contraction pEC50 [2]: 9.08; hUII pEC50, rat isolated aorta pre-treated with 0.3 µM [Bip^4]URP [3]: 8.31; hUII pEC50, rat isolated aorta pre-treated with 1 µM [Bip^4]URP [3]: 7.6; hUII pEC50, rat isolated aorta pre-treated with 3 µM [Bip^4]URP [3]: 7.55; hUII pEC50, rat isolated aorta, vehicle [3]: 8.98
ACF[d1Nal]KYCV (disulfide 2-7, also called compound 4; [D-Nal^4]URP) [[D-1-Nal^4]URP]		46	7.33	Aortic Ring contraction Emax (%), maximum efficacy at 10^-5.5 M [2]: 34 % of KCl (40 mM) contraction
H-ACF[Phe(4-I)]KYCV-OH (disulfide 2-7, H-Ala-Cys-Phe-Phe(I)-Lys-Tyr-Cys-Val-OH; also called compound 5; [para-iodo-Phe^4]URP) [[Phe(I)^4]URP]		58	7.24	Aortic Ring contraction Emax (%), maximum efficacy at 10^-5.5 M [2]: 92 % of KCl (40 mM) contraction
H-ACF[Cha]KYCV-OH (disulfide 2-7) [[Cha^4]URP]				Aortic Ring contraction Emax (%), maximum efficacy at 10^-5.5 M [2]: 77 % of KCl (40 mM) contraction
ACF[dTle]KYCV-OH (disulfide 2-7, also called compound 8) [[D-Tbg^4]URP]	99 % of KCl (40 mM) contraction	> 1000		
H-ACF[Dip]KYCV-OH (disulfide 2-7) [[Dip^4]URP]				Aortic Ring contraction Emax (%), maximum efficacy at 10^-5.5 M [2]: 23 % of KCl (40 mM) contraction
ACF[dAia]KYCV (disulfide 2-7; not fully specified (bridges); reading uncertain; also: D-Aia indole ring bonded to Lys5 backbone N, also called compound 13) [[D-Aia^4]URP]	148 % of KCl (40 mM) contraction	60	7.22	
H-ACF[Phg]KYCV-OH (disulfide 2-7, H-Ala-Cys-Phe-Phg-Lys-Tyr-Cys-Val-OH; also called compound 14) [[Phg^4]URP]	102 % of KCl (40 mM) contraction	29	7.53	
H-ACFWKYCV-OH (disulfide 2-7; SMILES CC(C)[C@H](NC(=O)[C@@H]1CSSC[C@H](NC(=O)[C@H](C)N)C(=O)N[C@@H](Cc2ccccc2)C(=O)N[C@@H](Cc2c[nH]c3ccccc23)C(=O)N[C@@H](CCCCN)C(=O)N[C@@H](Cc2ccc(O)cc2)C(=O)N1)C(=O)O) [urotensin II-related peptide (URP)]	100 % of KCl (40 mM) contraction			URP pEC50, rat aortic ring pre-treated with 10^-6 M [Bip^4]URP [6]: 7.74; Aortic Ring contraction EC50 [2]: 7 nM; Aortic Ring contraction pEC50 [2]: 8.09
H-ACF[dPhg]KYCV-OH (disulfide 2-7, also called compound 15) [[D-Phg^4]URP]	116 % of KCl (40 mM) contraction	29	7.56	
H-ACF[Tiq1c(1S)]KYCV-OH (disulfide 2-7, H-Ala-Cys-Phe-Tiq-Lys-Tyr-Cys-Val-OH; also called compound 16) [[Tiq^4]URP]	126 % of KCl (40 mM) contraction	10		
ACF[dTiq]KYCV (disulfide 2-7, also called compound 17) [[D-Tiq^4]URP]	113 % of KCl (40 mM) contraction	21	7.68	
ACF[dTic]KYCV (disulfide 2-7) [[D-Tic^4]URP]	128 % of KCl (40 mM) contraction			
H-ACF[Bip]KYCV-OH (disulfide 2-7) [[Bip^4]URP]				pIC50, reversal of contractile tone established in rat isolated aorta with 4 nM hUII [6]: 7.72
H-ACF[1Nal]KYCV-OH (disulfide 2-7, H-Ala-Cys-Phe-Nal-Lys-Tyr-Cys-Val-OH; also called compound 3) [[1-Nal^4]URP]	86 % of KCl (40 mM) contraction	17	7.77	
AXFXKYCV (position 2 is beta,beta-dimethyl-cysteine (Pen); position 4 is Tiq; cyclic (Pen2-Cys7 disulfide), H-Ala-Pen-Phe-Tiq-Lys-Tyr-Cys-Val-OH; also called compound 20) [[Pen^2, Tiq^4]URP]			< 5	
H-ACFWKYCV-OH (disulfide 2-7; also: 125I-labelled, site not given here, used at 0.2 nM; also called radiolabeled URP) [^125I-URP]				half-life (t1/2) [7]: 12.1 min; half-life (t1/2) [8]: 13.1 min
